system: Escherichia coli TOP10; experiment: shrunken log2 fold change of peptide-encoding DNA abundance (4.5 h post-induction vs induction); higher = less antimicrobial activity (less host growth inhibition); conditions: time post-induction: 4.5 h; library: site-saturation at positions 5, 18, 19, 20
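Also: peptides expressed intracellularly from a pBAD plasmid library in pooled LB shake-flask culture, induced with 0.3% L-arabinose, DNA abundance read by NGS, three biological replicates, DESeq2 with apeglm shrinkage.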

Sequence	shrunken log2 fold change
RRIRIRPPRLPRPRPRPRRAPRP	0.176
RRIRERPPRLPRPRPRPVRYPRP	-0.582
RRIRRRPPRLPRPRPRPMVIPRP	-0.189
RRIRDRPPRLPRPRPRPWTQPRP	-0.124
RRIRTRPPRLPRPRPRPFMMPRP	-0.203
RRIRIRPPRLPRPRPRPQVHPRP	-0.707
RRIRRRPPRLPRPRPRPPLWPRP	0.883
RRIRSRPPRLPRPRPRPQIFPRP	0.0933
RRIRHRPPRLPRPRPRPRLRPRP	0.207
RRIRLRPPRLPRPRPRPHYCPRP	-0.0889
RRIRIRPPRLPRPRPRPEVLPRP	-0.0175
RRIRVRPPRLPRPRPRPDEMPRP	0.0261
RRIRDRPPRLPRPRPRPITIPRP	-0.175
RRIRNRPPRLPRPRPRPTQGPRP	0.331
RRIRLRPPRLPRPRPRPMKHPRP	-0.409
RRIRRRPPRLPRPRPRPKCPPRP	0.278
RRIRKRPPRLPRPRPRPCGCPRP	0.249
RRIRVRPPRLPRPRPRPMGCPRP	0.0117
RRIRLRPPRLPRPRPRPMNLPRP	-0.31
RRIRKRPPRLPRPRPRPQNFPRP	-0.214

Sequence	shrunken log2 fold change
RRIRYRPPRLPRPRPRPNYRPRP	-0.306
RRIRLRPPRLPRPRPRPSFFPRP	-0.207
RRIRGRPPRLPRPRPRPDDEPRP	1.27
RRIRWRPPRLPRPRPRPAAYPRP	0.346
RRIRYRPPRLPRPRPRPYLWPRP	-0.777
RRIRFRPPRLPRPRPRPNHAPRP	0.0222
RRIRARPPRLPRPRPRPVHSPRP	0.0799
RRIRSRPPRLPRPRPRPPDHPRP	0.202
RRIRHRPPRLPRPRPRPIIGPRP	-0.00804
RRIRVRPPRLPRPRPRPTDFPRP	-0.0704
RRIRARPPRLPRPRPRPPKPPRP	0.689
RRIRKRPPRLPRPRPRPDNPPRP	-0.0237
RRIRGRPPRLPRPRPRPDWWPRP	0.937
RRIRDRPPRLPRPRPRPWCFPRP	-0.0692
RRIRYRPPRLPRPRPRPPEAPRP	0.0456
RRIRHRPPRLPRPRPRPFTLPRP	-0.312
RRIRARPPRLPRPRPRPGLKPRP	0.469
RRIRVRPPRLPRPRPRPQQFPRP	0.0811
RRIRVRPPRLPRPRPRPIINPRP	-0.644
RRIRHRPPRLPRPRPRPWEPPRP	-0.0767

Sequence	shrunken log2 fold change
RRIRNRPPRLPRPRPRPGPSPRP	0.516
RRIRWRPPRLPRPRPRPSLGPRP	0.338
RRIRCRPPRLPRPRPRPWKEPRP	0.124
RRIRTRPPRLPRPRPRPMLDPRP	-0.0137
RRIRYRPPRLPRPRPRPNKYPRP	-0.908
RRIRHRPPRLPRPRPRPFRFPRP	-0.132
RRIRNRPPRLPRPRPRPAVYPRP	-0.0398
RRIRMRPPRLPRPRPRPFWWPRP	0.158
RRIRQRPPRLPRPRPRPANCPRP	0.0322
RRIRLRPPRLPRPRPRPDCAPRP	0.239
RRIRVRPPRLPRPRPRPYDFPRP	-0.00884
RRIRRRPPRLPRPRPRPNEVPRP	-0.0332
RRIRPRPPRLPRPRPRPLGCPRP	0.376
RRIRDRPPRLPRPRPRPDEEPRP	-0.00164
RRIRARPPRLPRPRPRPKVIPRP	0.116
RRIRPRPPRLPRPRPRPCTYPRP	-0.253
RRIRTRPPRLPRPRPRPKPIPRP	0.0226
RRIRERPPRLPRPRPRPVFEPRP	-0.151
RRIRERPPRLPRPRPRPRTDPRP	0.193
RRIRARPPRLPRPRPRPHDLPRP	0.084
